Data reported in article PMC12700547, “Auranofin attenuates TOPBP1-mediated ATR replication stress response and improves chemotherapeutic response in breast tumor models” (The Journal of Clinical Investigation, 2025).
Each block holds one molecule with its values, some of them ahead of it. Where no end group is shown, it is not given here. [ ]: non-standard residue; d: D form. pT = C[C@@H](OP(=O)(O)O)[C@H](N)C(=O)O

Key:
[1] = target: auranofin; test: BLI; conditions: auranofin 25, 50, 100, 200 µM; n = 2; parent: 2.358E-5 M
[2] = target: T1, His-tagged recombinant TOPBP1 BRCT 7–8 (UniProt Q92547 1264-1493); test: BLI; Octet RED96; biotin-peptides immobilized on biosensors; His-tagged BRCT 7–8 (1 μM) alone or preincubated with a serial dilution of compound (auranofin) as analyte; PBS with 0.1% BSA, 0.02% Tween-20, 1% DMSO; 2 minutes of dissociation; 1:1 binding model with local fit; conditions: both partners purified
T1 construct: The cited crystal structures 7CMZ and 3AL3 hold BRCT 7–8; also called BRCT 7–8/WT; His-tagged BRCT 7–8; source: E coli cells, purified
T1 sequence (Q92547 1264-1493): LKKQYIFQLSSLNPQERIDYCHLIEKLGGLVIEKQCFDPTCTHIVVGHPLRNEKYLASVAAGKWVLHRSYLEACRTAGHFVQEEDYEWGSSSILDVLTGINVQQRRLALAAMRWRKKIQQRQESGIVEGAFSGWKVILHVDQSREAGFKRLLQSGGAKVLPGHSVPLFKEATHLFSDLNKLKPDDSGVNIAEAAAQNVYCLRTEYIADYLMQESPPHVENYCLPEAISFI

Kd [1]: 4.22 mM
Molecule: His-tagged recombinant TOPBP1 BRCT 7–8 (from UniProt Q92547) F1411A

binding result [2]: binds
B1: biotin-pFANCJ peptide (phosphorylated Thr1133 containing peptide of FANCJ) (peptide)
peptide: EAEDESIYF[pT]PELYDPEDT
modifications: not fully specified (N-terminus); printed as EAEDESIYF(pT)PELYDPEDT; also: biotin (site not given here)
notes: also called phosphorylated FANCJ peptide

binding result [2]: binds
Molecule: GACFKDAEYIYPSLESDDDDPA (not fully specified (N-terminus); also: biotin, position not given here, also called PHF8/APS peptide) [biotin-APS peptide (acidic patch sequence of PHF8)]

binding result [2]: binds
B2: biotin-Y989 peptide (Y989-containing peptide of the TOPBP1 AAD) (peptide)
peptide: ECKHLPESLYPHTYN
modifications: not fully specified (N-terminus); printed as ECKHLPESLY_989_PHTYN; also: biotin, position not given here

binding result [2]: binds
B3: biotin-F1071 peptide (F1071-containing peptide of the TOPBP1 AAD) (peptide)
peptide: TLEMRENFQKQLQEI
modifications: not fully specified (N-terminus); printed as TLEMRENF_1071_QKQLQEI; also: biotin, position not given here
